From IntAct's records for PubMed 22314232

B1: Calnexin (Homo sapiens), P27824 (parent)
chain: MEGKWLLCMLLVLGTAIVEAHDGHDDDVIDIEDDLDDVIEEVEDSKPDTTAPPSSPKVTYKAPVPTGEVYFADSFDRGTLSGWILSKAKKDDTDDEIAKYDGKWEVEEMKESKLPGDKGLVLMSRAKHHAISAKLNKPFLFDTKPLIVQYEVNFQNGIECGGAYVKLLSKTPELNLDQFHDKTPYTIMFGPDKCGEDYKLHFIFRHKNPKTGIYEEKHAKRPDADLKTYFTDKKTHLYTLILNPDNSFEILVDQSVVNSGNLLNDMTPPVNPSREIEDPEDRKPEDWDERPKIPDPEAVKPDDWDEDAPAKIPDEEATKPEGWLDDEPEYVPDPDAEKPEDWDEDMDGEWEAPQIANPRCESAPGCGVWQRPVIDNPNYKGKWKPPMIDNPSYQGIWKPRKIPNPDFFEDLEPFRMTPFSAIGLELWSMTSDIFFDNFIICADRRIVDDWANDGWGLKKAADGAAEPGVVGQMIEAAEERPWLWVVYILTVALPVFLVILFCCSGKKQTSGMEYKKTDAPQPDVKEEEEEKEEEKDKGDEEEEGEEKLEEKQKSDAEEDGGTVSQEEEDRKPKAEEDEILNRSPRNRKPRRE

Variants of: B1
Conditions: with SEC61A1, P61619
SEC61A1, P61619, sequence (P61619 whole entry): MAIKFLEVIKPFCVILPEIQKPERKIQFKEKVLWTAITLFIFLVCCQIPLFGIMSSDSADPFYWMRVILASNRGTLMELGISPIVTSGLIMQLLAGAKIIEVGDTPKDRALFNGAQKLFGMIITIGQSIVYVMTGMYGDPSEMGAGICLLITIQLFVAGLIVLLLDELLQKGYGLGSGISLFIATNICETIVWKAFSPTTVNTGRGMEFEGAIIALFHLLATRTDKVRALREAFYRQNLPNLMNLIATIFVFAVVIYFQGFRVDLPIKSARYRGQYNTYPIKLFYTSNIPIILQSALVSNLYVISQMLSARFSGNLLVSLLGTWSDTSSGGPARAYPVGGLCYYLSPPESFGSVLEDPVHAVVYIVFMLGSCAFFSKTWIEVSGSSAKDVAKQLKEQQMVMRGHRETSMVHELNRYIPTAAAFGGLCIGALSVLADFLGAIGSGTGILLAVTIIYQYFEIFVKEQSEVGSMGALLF

Variant | effect of a mutation on the interaction
MEGKWLLCMLLVLGTAIVEAHDGHDDDVIDIEDDLDDVIEEVEDSKPDTTAPPSSPKVTYKAPVPTGEVYFADSFDRGTLSGWILSKAKKDDTDDEIAKYDGKWEVEEMKESKLPGDKGLVLMSRAKHHAISAKLNKPFLFDTKPLIVQYEVNFQNGIECGGAYVKLLSKTPELNLDQFHDKTPYTIMFGPDKCGEDYKLHFIFRHKNPKTGIYEEKHAKRPDADLKTYFTDKKTHLYTLILNPDNSFEILVDQSVVNSGNLLNDMTPPVNPSREIEDPEDRKPEDWDERPKIPDPEAVKPDDWDEDAPAKIPDEEATKPEGWLDDEPEYVPDPDAEKPEDWDEDMDGEWEAPQIANPRCESAPGCGVWQRPVIDNPNYKGKWKPPMIDNPSYQGIWKPRKIPNPDFFEDLEPFRMTPFSAIGLELWSMTSDIFFDNFIICADRRIVDDWANDGWGLKKAADGAAEPGVVGQMIEAAEERPWLWVVYILTVALLVFLVILFCCSGKKQTSGMEYKKTDAPQPDVKEEEEEKEEEKDKGDEEEEGEEKLEEKQKSDAEEDGGTVSQEEEDRKPKAEEDEILNRSPRNRKPRRE [P494L] | disrupting interaction

Variants of: B1
Conditions: with rl12_human RPL12, P30050

Variant | effect of a mutation on the interaction
MEGKWLLCMLLVLGTAIVEAHDGHDDDVIDIEDDLDDVIEEVEDSKPDTTAPPSSPKVTYKAPVPTGEVYFADSFDRGTLSGWILSKAKKDDTDDEIAKYDGKWEVEEMKESKLPGDKGLVLMSRAKHHAISAKLNKPFLFDTKPLIVQYEVNFQNGIECGGAYVKLLSKTPELNLDQFHDKTPYTIMFGPDKCGEDYKLHFIFRHKNPKTGIYEEKHAKRPDADLKTYFTDKKTHLYTLILNPDNSFEILVDQSVVNSGNLLNDMTPPVNPSREIEDPEDRKPEDWDERPKIPDPEAVKPDDWDEDAPAKIPDEEATKPEGWLDDEPEYVPDPDAEKPEDWDEDMDGEWEAPQIANPRCESAPGCGVWQRPVIDNPNYKGKWKPPMIDNPSYQGIWKPRKIPNPDFFEDLEPFRMTPFSAIGLELWSMTSDIFFDNFIICADRRIVDDWANDGWGLKKAADGAAEPGVVGQMIEAAEERPWLWVVYILTVALLVFLVILFCCSGKKQTSGMEYKKTDAPQPDVKEEEEEKEEEKDKGDEEEEGEEKLEEKQKSDAEEDGGTVSQEEEDRKPKAEEDEILNRSPRNRKPRRE [P494L] | disrupting interaction
